Publication PMC9144871 (International Journal of Molecular Sciences, 2022)

B1: S-plug (designed binder)
chain: STIEEQAKTFLDKFNHEAEDLFYQSSLASWNYNTNITEENVQNMNNAGDKWSAFLKEQSTLAQMYPLQEIQNQTVKQQLQALQQN
notes: also called prototype S-plug
B2: S-plug2 (designed binder)
chain: SAMEEQAKFFLDKLQHELEDTQYQLLYKALALNKSQQEELQKQYKKTYDEYVTLAKKWAKAASSIPLNSITDEKLYKAMEKTASS
notes: also called thermo-stabilised S-plug; mutated form of S-plug
B3: S-plug3 (designed binder)
chain: SAMEEQAKFFLDKLQHELEDTQYQLLYKALALNKSQQEELQKQYKKTYDEYVTLAKKWAKAASSIPLNSITDEKLYKAMEKTASSPPGC
notes: also called S-plug2 with C-terminal arm PPGC; cysteine-locked S-plug

Columns and labels:
[1] = target: the molecule itself; experiment: SEC-MALS; analytical SEC-LS: Superdex 75 increase 10/30 with miniDAWN TREOS and refractive index detector; about 1.0 mg protein loaded; 50 mM Tris-HCl, 150 mM NaCl, 2.5% glycerol, pH 7.8; 0.5 mL/min
SARS-CoV-2 spike RBD-His [2] = target: T1, SARS-CoV-2 spike RBD-His (SARS-CoV-2, UniProt P0DTC2); experiment: SPR; details: both partners purified
SARS-CoV-2 spike RBD-His [3] = target: T1, SARS-CoV-2 spike RBD-His; experiment: SPR; details: both partners purified; remark: listed apart in the source
[4] = target: the molecule itself; experiment: mass spectrometry; S-plug3 checked for its dimeric state by mass spectrometry; conditions not given

Row | Binder | stoichiometry N [1] | Kd (SARS-CoV-2 spike RBD-His [2]) | Kd (SARS-CoV-2 spike RBD-His [3]) | binding result [4]
1 | B1 | 2 | 0.05 to 0.2 µM | – | –
2 | B2 | 2 | – | 0.0617 ± 0.0023 µM | –
3 | B3 | – | – | 0.0395 ± 0.0011 µM | binds
